According to patent publication US20210371503A1 (UNIVERSITY OF COLOGNE, published 2021):

Legend:
[1] = biological target: T1, prefusion stabilized SARS-CoV-2 S ectodomain (SARS-CoV-2, UniProt P0DTC2 14-1208); assay: ELISA, coated S ectodomain [cont'd]
T1 construct: also called SARS-CoV-2 spike ectodomain; ectodomain of the spike (S) homotrimer of SARS-CoV-2

[2] = biological target: T1, prefusion stabilized SARS-CoV-2 S …; assay: assay not stated; row Binding Affinity Spike Trimer, construct not given

B1: MnC4t2p2_A4 (antibody, V domains shown)
VH: QVQLVQSGSELKKPGASVKISCKASGYIFINYAMNWVRQAPGQGLEWMGWINTNTGNPTYAQDFTGRFVFSLDTSLSTAYLQISSLEAEDTAVYYCAKIGSRNSLGVWGQGTLVTVSA
VL: EIVLTQSPGTLSLSPGERATLSCRASHSVDRSYLAWYQQKPGLAPRLLIYGASSRATGIPDRFSGSGSGTDFTLTISRLEPEDFALYYCQHFGTSSVTFGRGTRLEIK
EC50 [1]: 0.02 µg/mL

B2: MnC4t2p1_E6 (antibody, V domains shown)
VH: EVQLVESGGHLVQPGRSLRLSCAASGFTFDDYAMHWVRQVPGKGLEWVSGISWNGGILGYADSVKGRFTISRDNAKNSLYLQMRSLRTDDTALYYCAKDLRRQDYYADWYFDLWGRGTLVTVSS
VL: DIQMTQSPSSVSASVGDRVTITCRASQGISSWLAWYQQKPGKAPKLLIYAASTLLSAVPSRFSGSGSGTDFTLTISSLQPEDFATYYCQQGNSFPFTFGPGTKVDV
EC50 [1]: 0.03 µg/mL

B3: MnC5t2p1_G1 (antibody, V domains shown)
VH: QMQLVQSGPEVKKPGTSVKVSCKASGFTFTSSAVQWVRQARGQRLEWIGWIVVGSGNTDYAQKFQERVTITRDVSTSTAYMELSSLRSEDTAVYYCAAPRCSGGSCYDGFDIWGQGTMVTVSS
VL: EIVLTQSPGTLSLSPGERATLSCRASQSVSSSYLAWYQHKPGQAPRLLICGASSRATGIPDRFSGSGSGTGFTLTISRLEPEDFAVYYCQQYGSSPWTFGQGTKVEIK
EC50 [1]: 0.03 µg/mL

B4: DZIF-10c (antibody, V domains shown)
VH: QVQLVESGGGVVQPGRSLRLSCAATGFTFRRYGMHWVRQAPGKGLEWVAGILFDGSNKYYVDSVKGRFTISRDSSRNTLYLQLNSLRREDTAVYYCAKGGDYEWELLESWGQGTLVTVSS
VL: DIQMTQSPSTVSASVGDRVTITCRASQSIDNWLAWYQEKPGKAPKVLIYKASSLESGVPSRFSGRGSGTEFTLTISSLQPGDFATYYCQHYHSFPLTFGGGTKVDIKR
notes: also called HbnC3t1p1_F4(-K); EX14870
Kd [2]: 0.65 nM
